The Immune Epitope Database (IEDB)
One block for each sequence: values may come before it.

What was measured:
HLA-B*15:03 = assay: IEDB peptide-MHC binding, purified MHC/competitive/radioactivity; filed as Kd, often an IC50 or EC50 that approximates it; ≥ and ≤ were set here for values at or beyond the usual limits of such assays
HLA-A*32:01 = assay: as above
HLA-B*58:01 [1] = assay: as above
HLA-B*57:01 = assay: as above
HLA-B*15:01 [2] = assay: as above
HLA-A*24:02 = assay: as above; details: source organism: Dengue virus 1 Singapore/S275/1990
HLA-A*30:01 = assay: as above; details: source organism: Vaccinia virus WR
HLA-B*08:01 [3] = assay: as above; details: source organism: Vaccinia virus WR
HLA-B*15:01 [4] = assay: IEDB peptide-MHC binding, purified MHC/competitive/fluorescence; filed as Kd, often an IC50 or EC50 that approximates it; ≥ and ≤ were set here for values at or beyond the usual limits of such assays; details: source organism: Yersinia pestis Nepal516
HLA-B*35:01 = assay: as above; details: source organism: Yersinia pestis Nepal516
HLA-A*29:02 = assay: as above
HLA-B*40:01 = assay: IEDB peptide-MHC binding, purified MHC/direct/fluorescence; filed as Kd, often an IC50 or EC50 that approximates it; ≥ and ≤ were set here for values at or beyond the usual limits of such assays; details: source organism: Yersinia pestis Nepal516
HLA-A*26:01 = assay: as above; details: source organism: Yersinia pestis Nepal516
HLA-A*01:01 = assay: as above; details: source organism: Yersinia pestis Nepal516
HLA-A*11:01 = assay: as above; details: source organism: Yersinia pestis Nepal516
HLA-B*08:01 [5] = assay: as above; details: source organism: Yersinia pestis
HLA-B*39:01 = assay: as above
HLA-A*69:01 = assay: as above; details: source organism: Yersinia pestis Nepal516
HLA-B*15:01 [6] = assay: as above; details: source organism: Yersinia pestis
HLA-A*03:01 [7] = assay: as above; details: source organism: Yersinia pestis Nepal516
HLA-B*58:01 [8] = assay: as above; details: source organism: Yersinia pestis Nepal516
HLA-B*27:05 = assay: as above; details: source organism: Yersinia pestis Nepal516
HLA-B*07:02 = assay: as above; details: source organism: Yersinia pestis
HLA-A*02:01 = assay: as above; details: source organism: Yersinia pestis
HLA-B*44:02 = assay: as above; details: source organism: Yersinia pestis Nepal516
HLA-A*31:01 = assay: as above; details: source organism: Yersinia pestis Nepal516
HLA-A*03:01 [9] = assay: IEDB peptide-MHC binding, purified MHC/competitive/fluorescence; filed as Kd, often an IC50 or EC50 that approximates it; ≥ and ≤ were set here for values at or beyond the usual limits of such assays; details: source organism: Entamoeba histolytica HM-1:IMSS
HLA-A*68:02 = assay: as above; details: source organism: Bacillus anthracis str. A0488
[10] = source organism: Vaccinia virus Copenhagen
[11] = source organism: Vaccinia virus WR
[12] = source organism: Dengue virus 1 Brazil/97-11/1997
[13] = source organism: Dengue virus 1 Singapore/S275/1990
[14] = source organism: Dengue virus 2 Jamaica/1409/1983
[15] = source organism: Pan troglodytes

Sequence: IIFMNLYSF
Kd (HLA-B*15:03; [10]): 10.7 nM | Kd (HLA-A*32:01; [10]): 1.25 nM

Sequence: IKENSIYSF
Kd (HLA-B*15:03; [11]): 1.45 nM

Sequence: IKTMMINPF
Kd (HLA-B*15:03; [11]): 0.191 nM

Sequence: ILVPNINIL
Kd (HLA-B*15:03; [11]): 600 nM

Sequence: KQIQKVETW
Kd (HLA-B*58:01 [1]; [12]): 4.77 nM | Kd (HLA-A*32:01; [12]): 49.5 nM | Kd (HLA-B*57:01; [12]): 460 nM

Sequence: KQIQRVETW
Kd (HLA-B*15:01 [2]; [13]): 67.8 nM | Kd (HLA-B*58:01 [1]; [13]): 10.8 nM | Kd (HLA-A*32:01; [13]): 21.1 nM | Kd (HLA-B*57:01; [13]): 44.1 nM | Kd (HLA-A*24:02): 8580 nM

Sequence: KVREHTFVK
Kd (HLA-B*15:03; [11]): 19300 nM | Kd (HLA-A*30:01): 2.12 nM | Kd (HLA-B*08:01 [3]): ≥ 45400 nM | Kd (HLA-B*15:01 [2]; [11]): 4120 nM | Kd (HLA-A*32:01; [11]): 148 nM

Sequence: LASSLLKNDI
Kd (HLA-B*58:01 [1]; [14]): 717 nM | Kd (HLA-B*57:01; [14]): 1280 nM

Sequence: MMVSTENNL
Kd (HLA-B*15:03; [11]): 11 nM

Sequence: NKVLCISFF
Kd (HLA-B*15:03; [11]): 41.4 nM

Sequence: NSYTLLLAY
Kd (HLA-B*15:01 [4]): 676 nM | Kd (HLA-B*35:01): 49 nM

Kd (HLA-A*29:02; source organism: Escherichia coli HS): 19.9 nM
Sequence: QKMHNHYAY

Sequence: QQSEARRML
Kd (HLA-B*40:01): ≥ 20000 nM | Kd (HLA-A*26:01): ≥ 20000 nM | Kd (HLA-A*01:01): ≥ 20000 nM | Kd (HLA-A*11:01): ≥ 20000 nM | Kd (HLA-B*08:01 [5]): 6410 nM | Kd (HLA-B*39:01; source organism: Yersinia pestis CA88-4125): 2090 nM | Kd (HLA-A*69:01): ≥ 20000 nM | Kd (HLA-B*15:01 [6]): 109 nM | Kd (HLA-A*03:01 [7]): ≥ 20000 nM | Kd (HLA-B*58:01 [8]): ≥ 20000 nM | Kd (HLA-B*27:05): ≥ 20000 nM | Kd (HLA-B*07:02): 397 nM | Kd (HLA-A*02:01): 703 nM | Kd (HLA-B*44:02): ≥ 20000 nM | Kd (HLA-A*31:01): ≥ 20000 nM

Sequence: SIYFLRGNH
Kd (HLA-A*03:01 [9]): ≥ 20000 nM

Sequence: SKYAGINIL
Kd (HLA-B*15:03; [11]): 0.271 nM | Kd (HLA-A*30:01): 546 nM | Kd (HLA-B*08:01 [3]): 16300 nM | Kd (HLA-B*15:01 [2]; [11]): 5640 nM | Kd (HLA-A*32:01; [11]): 16100 nM

Sequence: SMIDNSHLE
Kd (HLA-A*29:02; source organism: Cryptosporidium parvum Iowa II): 68.3 nM

Sequence: SNENGGPPL
Kd (HLA-B*39:01; source organism: Influenza A virus (A/Cameron/1946(H1N1))): ≥ 20000 nM

Sequence: SQFTCSLAV
Kd (HLA-B*15:03; [11]): 1.47 nM

Sequence: SSIIKTFVV
Kd (HLA-A*68:02): 17.9 nM

Sequence: VMVTSKPLF
Kd (HLA-B*15:03; [11]): 8.79 nM | Kd (HLA-A*30:01): 15600 nM | Kd (HLA-B*08:01 [3]): 3540 nM | Kd (HLA-B*15:01 [2]; [11]): 15.9 nM | Kd (HLA-A*32:01; [11]): 18100 nM

Sequence: VSRLFWYGY
Kd (HLA-A*29:02; source organism: Bacillus anthracis str. A0488): 75.9 nM

Sequence: YMYIMKLHH
Kd (HLA-A*29:02; source organism: Mycobacterium leprae): 36 nM

Sequence: YQTSVSQVA
Kd (HLA-B*15:03; [11]): 1.45 nM

Kd (HLA-B*58:01 [1]; [15]): 1500 nM | Kd (HLA-B*57:01; [15]): 12600 nM
Sequence: YRAVVPLVY
